The text below walks through data of patent US7795390B2, “Biological substance nesfatin and its related substances and uses thereof” (Teijin Pharma Limited, priority 2005, dated 2010).

For one test, the system named is rats. Description: Continuous administration of nesfatin-1 into the rat ventricle, weight of adipose tissue. The class given is in vivo. Conditions: 5 pmol per day, third ventricle, 10 days; vs saline. The method, then:
Nesfatin-1 (5 pmol per day) or physiological saline alone (the control group) was administered into the third ventricle of a rat using an osmotic pump for 10 consecutive days (5 and 4 rats were used per group). Intraventricular administration into rats by the osmotic pump was carried out in a manner similar to that in Working Example 13.
After the administration of nesfatin-1 or physiological saline alone for 10 days, each rat was sacrificed, dissected to excise all of the abdominal subcutaneous adipose tissue, the epididymal adipose tissue (these are white adipose tissue) and the retroperitoneal brown adipose tissue, and the weight of them was measured. Also, the gastrocnemial muscles of the bilateral hind legs were harvested and the weight of them was measured. From the weight of the tissues measured, their ratio to the body weight of each individual was determined (tissue weight/body weight, mg/g). For testing of significant difference, analysis of variance was used.

Another test relates to mice. Description: Intraperitoneal and subcutaneous administration of nesfatin-1 to mice, food intake. The class given is in vivo, mouse. The method, then: The sample used in the administration was the recombinant mouse nesfatin-1 prepared in Working Example 16 dissolved in 200 μl of physiological saline so as to contain 10 nmol, and as the control sample, physiological saline (Saline) alone was used. Using a tuberculin syringe equipped with a 25G needle, 200 μl each of the samples was administered once into the abdominal cavity or the hypodermis of the back of each mouse, and the time of administration was immediately before the start (6 p.m.) of the dark period. Other conditions were similar to those in Working Example 18.

The next test relates to Wistar rats. Description: Administration of nesfatin-1, nesfatin-2, nesfatin-3, nesfatin-2/3 into the third ventricle, amount of food intake. It is filed as in vivo, rat. The method, then:
Samples used for intracerebral administration were PBS alone (vehicle group), or nesfatin-1, nesfatin-2, nesfatin-3 or nesfatin-2/3 prepared in Working Example 10 each dissolved in PBS, and 25 pmol was administered per individual into the third ventricle immediately before the dark period. Rats used were Wistar rats (purchased from Nippon SLC) and were housed as in Working Example 6, and among 8-9 week-old male Wistar rats, those individuals weighing 200-250 g were selected and used (N=5). The technique of intraventricular administration and the measurement of the amount of food intake in rats were carried out in a method similar to those in Working Example 6. In the measurement of the amount of food intake, the reduced amount of food at 1 hour after administration (0-1 hr) and 2 hours after administration (1-3 hrs) was determined as food intake.
In the same condition above, 1, 5 or 25 pmol of nesfatin-1 as a sample was administered per rat individual into the third ventricle immediately before the dark period. In this experiment, the amount of food intake was determined at 1 hour after administration (0-1 hr).
The experimental condition was similar to that in Working Example 12, and 5 pmol of nesfatin-1 was administered into the third ventricle of the rat brain immediately before the start of the dark period, the amount decreased of the food (the amount of food intake) during 1 hour immediately after administration (0-1 hr), during 2 hours from 1 hour after the administration (1-3 hr), during 3 hours from 3 hours after the administration (3-6 hr), and during 6 hours from 6 hours after the administration (6-12 hr) was measured as the amount of food intake. As the control group, the amount of food intake by individuals that received physiological saline alone was measured.
The experimental condition was similar to that in Working Example 12, and for a group that received 5 pmol of nesfatin-1 alone into the third ventricle of the rat brain immediately before the start of the dark period and a group that received 5 pmol of nesfatin-1 and 8 μg of anti-nesfatin-1 antibody (nesfatin-1 IgG), the amount of food intake for 1 hour after administration was measured and compared to that for the control group (physiological saline alone was administered). Also, for a group that received only leptin (Rat leptin: R & D Systems, 598-LP-01M) (1 μg) which is known to have an activity of suppressing food intake by intraventricular administration and a group that received leptin and anti-nesfatin-1 antibody, its effect on food intake was also studied.

A further test deals with C57BL/6J mice. As to the kind of experiment: Intraperitoneal administration of nesfatin-1 to c57BL/6J mice, food intake and blood biochemical parameters. The class given is in vivo. Conditions: recombinant mouse nesfatin-1 10 nmol ip; 0-3 hours; vs saline. The method, then:
As experimental animals, 7 week-old male c57BL/6J mice were purchased from Nippon Clea, and were housed in a cycle of 12 hours of the light period from 6 a.m. to 6 p.m. and […] of the dark period from 6 p.m. to 6 a.m. the next morning and were allowed free access to a pellet food (Nippon Clea, CE-2), and kept at 22° C.
Into the abdominal cavity of the c57BL/6J mice, 10 nmol of recombinant mouse nesfatin-1 prepared in Working Example 16 dissolved in 100 μl of physiological saline was administered, and as the control sample physiological saline alone was used. Using a tuberculin syringe equipped with a 26G needle, 100 μl each of the sample was administered once into the abdominal cavity of each mouse (5 animals per group), and the time of administration was immediately before the start (6 p.m.) of the dark period.
Each mouse that received administration was placed in an individual cage, and during 0-3 hours after the administration the weight decreased of the pellet food was measured to determine the amount of food intake. Also, 3 hours after the administration each mouse was sacrificed by decapitation to collect whole blood, and serum was collected therefrom. For the serum, the contents of glucose, total cholesterol and triglyceride were measured using commercial reagents for determination (KYOWA MEDEX, Determiner L GLUII, Determiner L TCII, Determiner L TGII).

For another test, the system named is ICR mice. As to the kind of experiment: Intraperitoneal administration of nesfatin-1 to ICR mice, food intake. The following applies: 0-3 hours. The class given is in vivo, mouse. The method, then:
The experimental animal was 7 week-old male ICR mice purchased from Japan SLC, Inc., and were housed after purchase in a cycle of 12 hours of the light period from 6 a.m. to 6 p.m. and 12 hours of the dark period from 6 p.m. to 6 a.m. the next morning with free access to a pellet food (Nippon Clea, CE-2), kept at 22° C., and housing was continued in a similar condition during the experiment period. The mice purchased were subjected to preliminary housing for over one week, individuals weighing 35-40 g were selected among 8 to 9 week-old individuals and were used in the experiment.
The sample used in the administration was the recombinant mouse nesfatin-1 prepared in Working Example 16 dissolved in 200 μl of physiological saline so as to contain 2 nmol, 10 nmol or 50 nmol, and as the control sample, physiological saline (Saline) alone was used. Using a tuberculin syringe equipped with a 25G needle, 200 μl each of the sample was administered once into the abdominal cavity of each mouse (5 animals per group), and the time of administration was immediately before the start (6 p.m.) of the dark period.
Each mouse that received administration was placed in an individual cage, and during 0-3 hours after the administration the weight decreased of the pellet food was measured to determine the amount of food intake. For testing of significant difference, analysis of variance was used.

B1: nesfatin-1: 82-residue peptide, amino acid Nos. 25 to 106 of nesfatin (SEQ ID NO: 15), solid-phase synthesis (peptide, listed as Rattus norvegicus)
chain: VPIDVDKTKVHNVEPVESARIEPPDTGLYYDEYLKQVIEVLETDPHFREKLQKADIEEIRSGRLSQELDLVSHKVRTRLDEL
As for B1, in the test on rats, the “ratio of tissue weight to body weight, abdominal subcutaneous adipose tissue” value was “significant decreases”. Besides, the “ratio of tissue weight to body weight, brown adipose tissue” value in the test with rats is given as “no significant difference”. Also, in the test with rats, the “ratio of tissue weight to body weight, epididymal adipose tissue” value is “significant decreases”. In addition, the “ratio of tissue weight to body weight, gastrocnemial muscle” value in the test with rats was “no significant difference”. The “ratio of tissue weight to body weight, mesenteric adipose tissue” value in the test on rats is listed as “significant decreases”. Further, in the test with rats, the “ratio of tissue weight to body weight, retroperitoneal adipose tissue” value is on record as “tended to decrease but no significant difference”. The “amount of food intake” value was “statistically significant decrease” in the test with mice (10 nmol intraperitoneally (ip), 0-3 hours, P<0.05 vs saline); “the decrease in the amount of food intake was not significant” in the test with mice (10 nmol intraperitoneally (ip), 0-14 hours); “tended to decrease” with mice (10 nmol subcutaneously (sc), 0-3 hours); “the decrease was significant” with mice (10 nmol subcutaneously (sc), 0-14 hours, P<0.005 vs saline); “Significant decreases in the amount of food intake” in the test with Wistar rats (5 pmol into the third ventricle, 0-1 hr, 1-3 hr and 3-6 hr, p<0.01 vs control); “an increase in the amount of food intake” in the test with Wistar rats (5 pmol into the third ventricle, 6-12 hr, p<0.01 vs control). In addition, the “amount of food intake” value with Wistar rats (5 pmol or 25 pmol intraventricular, 0-1 hr) is recorded as “significant decreased amount of food intake”; in the test on Wistar rats (25 pmol into the third ventricle before dark period, 0-1 hr and 1-3 hr, vs control), “marked effect on the suppression of feeding”; in the test with Wistar rats (1, 5 or 25 pmol per rat intraventricular, 0-1 hr, vs saline) it was “decreased amount of food intake, with the increased amount of the administered nesfatin-1”; in the test on C57BL/6J mice, “significantly reduced”; in the test on ICR mice (recombinant mouse nesfatin-1 2 nmol per mouse ip, vs Saline), “decreases in the amount of food intake”; in the test on ICR mice (recombinant mouse nesfatin-1 10 nmol per mouse ip, p<0.05), “statistically significant decreases in the amount of food intake”. For the same molecule, in the test on ICR mice (recombinant mouse nesfatin-1 50 nmol per mouse ip, p<0.005), the “amount of food intake” value was “statistically significant decreases in the amount of food intake”.
